From PMC4570970

Substrate: CC(C)=CCC/C(C)=C/CC/C(C)=C/CO[P@@](=O)(O)OP(=O)(O)O
Test: purified protein
Conditions: Mg2+ active site

B1: 5-epi-aristolochene synthase (TEAS) (Nicotiana tabacum) (protein)
chain: MASAAVANYEEEIVRPVADFSPSLWGDQFLSFSIKNQVAEKYAKEIEALKEQTRNMLLATGMKLADTLNLIDTIERLGISYHFEKEIDDILDQIYNQNSNCNDLCTSALQFRLLRQHGFNISPEIFSKFQDENGKFKESLASDVLGLLNLYEASHVRTHADDILEDALAFSTIHLESAAPHLKSPLREQVTHALEQCLHKGVPRVETRFFISSIYDKEQSKNNVLLRFAKLDFNLLQMLHKQELAQVSRWWKDLDFVTTLPYARDRVVECYFWALGVYFEPQYSQARVMLVKTISMISIVDDTFDAYGTVKELEAYTDAIQRWDINEIDRLPDYMKISYKAILDLYKDYEKELSSAGRSHIVCHAIERMKEVVRNYNVESTWFIEGYTPPVSEYLSNALATTTYYYLATTSYLGMKSATEQDFEWLSKNPKILEASVIICRVIDDTATYEVEKSRGQIATGIECCMRDYGISTKEAMAKFQNMAETAWKDINEGLLRPTPVSTEFLTPILNLARIVEVTYIHNLDGYTHPEKVLKPHIINLLVDSIKI
  Km: 4.47 µM
